From publication PMC7192615, “Structure specific recognition of telomeric repeats containing RNA by the RGG-box of hnRNPA1”

Columns and labels:
UP1+RGG [1] = target: T1, UP1+RGG (UniProt P09651-2 1-249); experiment: ITC; 100 mM KCl; ITC/CD: 20 mM Tris pH 8.0, 100 mM KCl, 25 C; NMR: 10 mM potassium phosphate pH 6.5, 100 mM KCl, 298 K (10% D2O for HSQC); details: protein: recombinant, tags: C-terminal 6xHis
UP1 = UP1 (UniProt P09651-2 1-196); experiment: as above; details: protein: recombinant, tags: C-terminal 6xHis
UP1, sequence (P09651 1-196): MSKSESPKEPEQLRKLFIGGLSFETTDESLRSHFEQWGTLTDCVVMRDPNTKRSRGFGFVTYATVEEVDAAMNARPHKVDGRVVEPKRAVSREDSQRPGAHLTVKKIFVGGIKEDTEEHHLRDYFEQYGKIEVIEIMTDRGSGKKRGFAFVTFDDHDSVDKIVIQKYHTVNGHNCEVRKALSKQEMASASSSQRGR

RGG-box (isolated) [2] = target: T2, RGG-box (isolated) (UniProt P09651-2 197-249); experiment: as above; details: protein: recombinant; tags: GST removed by TEV; intramolecular parallel G4
T2 sequence (P09651 197-249): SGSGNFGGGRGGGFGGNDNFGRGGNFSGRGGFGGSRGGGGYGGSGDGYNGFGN

RGG-box (isolated) [3] = target: T2, RGG-box (isolated); experiment: NMR HSQC CSP titration (global fit); 100 mM KCl; ITC/CD: 20 mM Tris pH 8.0, 100 mM KCl, 25 C; NMR: 10 mM potassium phosphate pH 6.5, 100 mM KCl, 298 K (10% D2O for HSQC); details: protein: recombinant; tags: GST removed by TEV; intramolecular parallel G4
UP1+RGG [4] = target: T1, UP1+RGG; experiment: ITC; 100 mM KCl, 20% PEG 200; ITC/CD: 20 mM Tris pH 8.0, 100 mM KCl, 25 C; NMR: 10 mM potassium phosphate pH 6.5, 100 mM KCl, 298 K (10% D2O for HSQC); details: protein: recombinant; tags: C-terminal 6xHis; intramolecular parallel G4
[5] = parallel G4 tetramer of 4 strands, no loops
[6] = parallel G4 dimer of 2 strands, two loops

T1 sequence (P09651 1-249): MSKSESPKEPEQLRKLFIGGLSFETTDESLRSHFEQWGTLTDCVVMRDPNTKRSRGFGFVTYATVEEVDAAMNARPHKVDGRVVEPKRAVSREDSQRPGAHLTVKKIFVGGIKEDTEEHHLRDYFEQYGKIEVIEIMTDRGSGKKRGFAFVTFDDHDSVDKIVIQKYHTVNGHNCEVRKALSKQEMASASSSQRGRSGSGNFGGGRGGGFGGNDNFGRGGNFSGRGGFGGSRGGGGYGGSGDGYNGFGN

B1: TERRA-6 (structured_RNA)
RNA: UUAGGG
- Kd (UP1+RGG [1]; [5]): 2.38 ± 0.23 µM
- Kd (UP1; [5]): 2.02 ± 0.17 µM

B2: ssRNA-18 (ssRNA)
RNA: GAGUAACCCGUAUCGUGA
- Kd (UP1+RGG [1]; single strand, 18 nt): 2.28 ± 0.26 µM
- Kd (UP1; single strand, 18 nt): 2.37 ± 0.49 µM

B3: TERRA-12 (structured_RNA)
RNA: UUAGGGUUAGGG
- Kd (UP1+RGG [1]; [6]): 1.07 ± 0.14 µM
- Kd (UP1; [6]): 2.04 ± 0.47 µM

B4: TERRA-24 (structured_RNA)
RNA: UUAGGGUUAGGGUUAGGGUUAGGG
- Kd (UP1+RGG [1]; intramolecular parallel G4): 0.92 ± 0.17 µM
- Kd (UP1; intramolecular parallel G4): 1.71 ± 0.17 µM
- Kd (RGG-box (isolated) [2]): 9 ± 4.3 µM
- Kd (RGG-box (isolated) [3]): 11 ± 1.5 µM
- Kd (UP1+RGG [4]): 3 ± 0.55 µM
